Measurements from US20130287781A1 (GlaxoSmithKline, published 2013).
Like-named read-outs stand apart in the source and are kept apart here.

T1: peptide 7 (biotin-SGSG-VLPDIVMEAPLNSAVP) (human, N-terminal biotin)
T1 peptide: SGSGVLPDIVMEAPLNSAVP

T2: peptide 6 (biotin-SGSG-TPSPVLPDIVMEAPLN) (human, N-terminal biotin)
T2 peptide: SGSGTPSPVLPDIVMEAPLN

T3: native human Nogo-A of IMR32 neuroblastoma cells (intracellular) (human, UniProt Q9NQC3 1-1192)
T3 construct: whole, on cells; Detected inside permeabilised, fixed cells (ER-resident), not on the cell surface; also called intracellular Nogo-A; native Nogo-A
T3 sequence (looked up): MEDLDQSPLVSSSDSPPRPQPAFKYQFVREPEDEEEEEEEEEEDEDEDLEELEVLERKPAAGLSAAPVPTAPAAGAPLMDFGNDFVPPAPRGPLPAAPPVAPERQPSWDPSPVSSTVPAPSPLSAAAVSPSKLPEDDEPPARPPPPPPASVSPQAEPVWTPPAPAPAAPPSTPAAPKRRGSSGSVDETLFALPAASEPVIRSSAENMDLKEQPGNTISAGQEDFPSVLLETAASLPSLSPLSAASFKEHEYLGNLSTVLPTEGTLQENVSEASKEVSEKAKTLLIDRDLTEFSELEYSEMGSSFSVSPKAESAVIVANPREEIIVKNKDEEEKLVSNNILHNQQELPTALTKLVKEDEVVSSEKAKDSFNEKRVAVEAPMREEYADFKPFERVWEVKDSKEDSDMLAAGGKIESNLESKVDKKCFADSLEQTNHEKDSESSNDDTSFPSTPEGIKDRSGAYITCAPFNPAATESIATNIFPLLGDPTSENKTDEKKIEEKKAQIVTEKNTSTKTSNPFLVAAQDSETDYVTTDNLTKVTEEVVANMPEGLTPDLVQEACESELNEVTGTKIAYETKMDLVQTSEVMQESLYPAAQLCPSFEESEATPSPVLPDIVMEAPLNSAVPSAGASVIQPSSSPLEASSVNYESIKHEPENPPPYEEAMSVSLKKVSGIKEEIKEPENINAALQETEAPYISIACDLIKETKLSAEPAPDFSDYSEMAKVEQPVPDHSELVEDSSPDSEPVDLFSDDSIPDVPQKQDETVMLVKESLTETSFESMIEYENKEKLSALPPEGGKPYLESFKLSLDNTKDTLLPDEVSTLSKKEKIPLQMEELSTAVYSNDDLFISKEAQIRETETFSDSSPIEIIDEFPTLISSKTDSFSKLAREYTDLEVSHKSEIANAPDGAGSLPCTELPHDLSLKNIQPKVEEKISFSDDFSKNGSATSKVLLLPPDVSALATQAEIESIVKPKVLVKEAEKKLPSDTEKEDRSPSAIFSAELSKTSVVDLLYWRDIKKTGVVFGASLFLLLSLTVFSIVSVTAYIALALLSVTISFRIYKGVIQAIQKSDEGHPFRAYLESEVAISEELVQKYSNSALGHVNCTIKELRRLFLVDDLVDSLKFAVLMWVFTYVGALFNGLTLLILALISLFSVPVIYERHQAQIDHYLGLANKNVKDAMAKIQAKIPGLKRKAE


Experiments:
GST-human NOGO-A56 [1] = molecular target: T4, GST-human NOGO-A56 (human); experiment: SPR (Biacore T100), antigen amine-coupled to CM5, antibody 0.125-8 nM; mean of six runs in duplicate (SD in brackets)
T4 construct: Expressed in E. coli BL21 from pGEX-6P1 and purified on glutathione-sepharose; the GST tag is part of the protein in the assays; also called GST-Nogo-A 5+6; GST Nogo-A 5 + 6
T4 sequence (chain, as listed by the source limits assumed): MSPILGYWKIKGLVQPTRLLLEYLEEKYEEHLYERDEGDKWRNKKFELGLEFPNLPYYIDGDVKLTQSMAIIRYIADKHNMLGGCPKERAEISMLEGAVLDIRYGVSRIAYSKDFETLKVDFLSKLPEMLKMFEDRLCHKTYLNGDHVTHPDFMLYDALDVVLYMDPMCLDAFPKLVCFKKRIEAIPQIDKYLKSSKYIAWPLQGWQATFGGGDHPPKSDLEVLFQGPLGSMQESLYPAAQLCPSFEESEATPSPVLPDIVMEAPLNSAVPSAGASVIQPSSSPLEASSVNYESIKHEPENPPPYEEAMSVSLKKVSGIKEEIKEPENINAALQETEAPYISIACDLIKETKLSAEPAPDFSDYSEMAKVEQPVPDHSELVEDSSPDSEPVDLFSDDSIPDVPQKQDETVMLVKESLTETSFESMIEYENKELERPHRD
Excerpt: In the first approach, the recombinant Nogo-A was coupled to the surface of the chip and anti-Nogo-A antibodies passed over this surface. In the second approach, Protein A was used to capture the antibody onto the surface of the chip over which the recombinant GST-human Nogo-A56 was passed.
The antigen was bound to the CM5 chip by primary amine coupling. […] The values show the mean and standard deviation (in brackets) of six independent runs carried out in duplicate. Each completed data set was analysed independently prior to the calculation of mean and standard deviation.

GST-human NOGO-A56 [2] = molecular target: T4, GST-human NOGO-A56; experiment: competition ELISA on coated GST-Nogo-A 5+6; competitor 2A10 pre-mixed, bound 2A10 detected with anti-mouse IgG-HRP
Excerpt: Recombinant human Nogo-A (GST-Nogo-A 5+6) was coated to the plates. […] IC50 values were derived using Robosage.

[3] = molecular target: T5, Squirrel monkey NOGO (A56) plus GST tag (squirrel monkey); experiment: SPR (Biacore), reverse format: antibody captured by Protein A; end of the range tied to squirrel monkey by Table 19
T5 construct: also called GST-NOGO-A56 from squirrel monkey
T5 sequence (chain, as listed by the source limits assumed): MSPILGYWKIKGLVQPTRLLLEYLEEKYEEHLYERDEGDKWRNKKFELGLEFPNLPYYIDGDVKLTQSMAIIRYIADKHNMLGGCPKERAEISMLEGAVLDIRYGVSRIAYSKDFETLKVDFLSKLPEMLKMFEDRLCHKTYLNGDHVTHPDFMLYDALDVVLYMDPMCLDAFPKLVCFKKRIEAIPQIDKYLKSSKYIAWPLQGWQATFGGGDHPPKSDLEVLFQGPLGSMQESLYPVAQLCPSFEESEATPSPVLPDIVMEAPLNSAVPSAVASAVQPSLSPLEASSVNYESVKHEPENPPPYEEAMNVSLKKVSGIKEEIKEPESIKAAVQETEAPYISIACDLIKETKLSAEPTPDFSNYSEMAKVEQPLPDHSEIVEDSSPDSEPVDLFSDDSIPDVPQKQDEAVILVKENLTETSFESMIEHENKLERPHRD
Excerpt: (§1) Protein A was immobilised on the surface at about 4000RUs and anti-Nogo-A antibodies were captured at approximately 300-400RUs. […] All the runs were done in duplicates. The values show the mean and standard deviation (in brackets) of 1-3 independent runs with each run done in duplicate and each data set analysed independently prior to calculation of the mean and standard deviation.

GST-human NOGO-A56 [4] = molecular target: T4, GST-human NOGO-A56; experiment: competition ELISA on coated GST-Nogo-A 5+6; competitor 2A10 pre-mixed, bound 2A10 detected with anti-mouse IgG-HRP; remark: listed apart in the source
[5] = molecular target: T1, peptide 7 (biotin-SGSG-VLPDIVMEAPLNSAVP); experiment: peptide ELISA: biotinylated 16-mer peptide on streptavidin, antibody at 5 ug/ml, kappa-chain peroxidase conjugate, Abs490
Description: (§2) Streptavidin at 5 μg/ml in sterile water was coated onto Nunc immunosorp plates (100 μl per well) at 37° C. overnight. The plates were rinsed 3 times with PBS containing 0.05% Tween (PBST) then blocked with 3% BSA in PBST at 4° C. overnight. The plates were washed 3 times with PBST. Peptides were then added to the wells at a concentration of approximately 10 μg/ml (diluted in 3% BSA in PBST) and incubated at room temperature for 1 hour. The plates were washed 3 times with PBST then incubated for 1 hour with anti-NOGO antibodies diluted to 5 μg/ml in 3% BSA in PBST. […] The plates were washed 3 times with PBST and then incubated with 100 μl OPD peroxidase substrate (Sigma) per well for 10 minutes. The colour reaction was stopped by the addition of 50 μl 3 molar H₂SO₄. Absorbance at 490 nm was measured using a plate reader.

[6] = molecular target: T2, peptide 6 (biotin-SGSG-TPSPVLPDIVMEAPLN); experiment: as above
Description: as §2

[7] = molecular target: T3, native human Nogo-A of IMR32 …; experiment: flow cytometry on permeabilised, fixed IMR32 cells (intracellular Nogo-A), PE anti-human IgG, MFI
Description: In the second assay, the ability of the humanised antibodies to bind native Nogo-A was assessed using a human neuroblastoma cell line—IMR32. This cell line is characterised by high intracellular/low cell surface levels of Nogo-A protein. In an attempt to increase the binding signal, the assay was set-up to detect intracellular Nogo-A (ER-resident). IMR32 cells were permeabilised and fixed prior to staining with the anti-Nogo-A humanised antibodies. Binding of the antibodies to Nogo-A was detected using an anti-human IgG-PE labelled secondary (Sigma, #P8047).

[8] = molecular target: T6, Marmoset NOGO (A56) plus GST tag (marmoset); experiment: SPR (Biacore), reverse format: antibody captured by Protein A; end of the range tied to marmoset by Table 19
T6 construct: also called GST-NOGO-A56 from marmoset
T6 sequence (chain, as listed by the source limits assumed): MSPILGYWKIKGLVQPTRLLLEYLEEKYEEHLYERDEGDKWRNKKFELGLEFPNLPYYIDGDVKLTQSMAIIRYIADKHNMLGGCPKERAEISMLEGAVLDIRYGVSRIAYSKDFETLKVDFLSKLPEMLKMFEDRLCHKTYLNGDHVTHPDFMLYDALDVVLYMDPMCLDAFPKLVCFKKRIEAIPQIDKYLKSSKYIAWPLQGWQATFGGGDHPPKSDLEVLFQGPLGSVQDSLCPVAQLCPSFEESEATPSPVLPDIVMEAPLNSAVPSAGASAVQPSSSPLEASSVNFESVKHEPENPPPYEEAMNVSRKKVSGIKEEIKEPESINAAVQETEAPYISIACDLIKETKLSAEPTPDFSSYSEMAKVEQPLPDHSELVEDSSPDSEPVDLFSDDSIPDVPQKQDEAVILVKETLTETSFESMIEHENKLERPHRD
Excerpt: as §1

[9] = molecular target: T7, Cynomolgus monkey NOGO (A56) plus GST tag (cynomolgus monkey); experiment: SPR (Biacore), reverse format: antibody captured by Protein A
T7 construct: also called cynomolgus Nogo-A; GST-NOGO-A56 from cynomolgus
T7 sequence (chain, as listed by the source limits assumed): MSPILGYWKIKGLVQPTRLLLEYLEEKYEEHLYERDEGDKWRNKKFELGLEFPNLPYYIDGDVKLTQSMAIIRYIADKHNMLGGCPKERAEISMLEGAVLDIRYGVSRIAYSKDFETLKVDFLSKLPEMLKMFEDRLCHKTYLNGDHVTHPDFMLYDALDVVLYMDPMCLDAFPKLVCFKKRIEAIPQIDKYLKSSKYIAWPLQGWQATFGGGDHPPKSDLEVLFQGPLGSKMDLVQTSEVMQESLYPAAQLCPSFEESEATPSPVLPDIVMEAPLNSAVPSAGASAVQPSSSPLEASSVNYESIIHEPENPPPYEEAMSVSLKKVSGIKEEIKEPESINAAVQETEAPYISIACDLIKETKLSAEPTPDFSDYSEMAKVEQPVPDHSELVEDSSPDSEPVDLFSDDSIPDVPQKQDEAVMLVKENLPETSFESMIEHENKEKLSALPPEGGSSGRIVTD
Excerpt: as §1

[10] = molecular target: T8, Rat NOGO (A56) plus GST tag (rat); experiment: as above
T8 construct: also called GST-NOGO-A56 from rat
T8 sequence (chain, as listed by the source limits assumed): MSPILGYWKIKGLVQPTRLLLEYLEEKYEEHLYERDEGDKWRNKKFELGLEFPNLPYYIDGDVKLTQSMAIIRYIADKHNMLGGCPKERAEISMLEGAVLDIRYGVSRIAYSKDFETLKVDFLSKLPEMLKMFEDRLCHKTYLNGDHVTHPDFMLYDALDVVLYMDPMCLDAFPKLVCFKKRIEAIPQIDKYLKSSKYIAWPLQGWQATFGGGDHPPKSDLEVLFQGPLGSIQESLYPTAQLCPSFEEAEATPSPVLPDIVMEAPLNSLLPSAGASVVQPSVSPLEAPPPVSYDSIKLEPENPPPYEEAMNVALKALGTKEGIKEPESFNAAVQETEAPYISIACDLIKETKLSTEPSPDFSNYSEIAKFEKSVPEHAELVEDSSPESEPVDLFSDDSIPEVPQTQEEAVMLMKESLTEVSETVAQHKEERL
Excerpt: as §1

Human C1q (Sigma, C0660) = molecular target: T9, Human C1q (Sigma, C0660) (human, UniProt P02745 23-245; P02746 28-253; P02747 29-245); experiment: C1q ELISA: antibody coated at 1 mcg/ml, human C1q added, anti-human C1q-HRP, Abs490
T9 construct: Bought protein
T9 sequence (P02745 23-245 limits assumed, chain 1 of 3): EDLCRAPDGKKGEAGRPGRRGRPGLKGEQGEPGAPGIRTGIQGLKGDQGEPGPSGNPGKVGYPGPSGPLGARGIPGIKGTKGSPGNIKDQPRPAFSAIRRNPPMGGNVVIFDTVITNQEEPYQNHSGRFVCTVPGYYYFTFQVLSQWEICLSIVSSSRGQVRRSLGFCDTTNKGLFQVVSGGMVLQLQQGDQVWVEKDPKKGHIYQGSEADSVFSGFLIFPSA
T9 sequence (P02746 28-253 limits assumed, chain 2 of 3): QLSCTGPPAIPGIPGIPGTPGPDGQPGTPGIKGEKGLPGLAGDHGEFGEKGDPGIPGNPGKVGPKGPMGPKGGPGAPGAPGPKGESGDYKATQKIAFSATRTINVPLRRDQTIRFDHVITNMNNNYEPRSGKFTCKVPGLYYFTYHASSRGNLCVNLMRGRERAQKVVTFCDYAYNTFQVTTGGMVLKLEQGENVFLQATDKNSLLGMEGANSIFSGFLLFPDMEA
T9 sequence (P02747 29-245 limits assumed, chain 3 of 3): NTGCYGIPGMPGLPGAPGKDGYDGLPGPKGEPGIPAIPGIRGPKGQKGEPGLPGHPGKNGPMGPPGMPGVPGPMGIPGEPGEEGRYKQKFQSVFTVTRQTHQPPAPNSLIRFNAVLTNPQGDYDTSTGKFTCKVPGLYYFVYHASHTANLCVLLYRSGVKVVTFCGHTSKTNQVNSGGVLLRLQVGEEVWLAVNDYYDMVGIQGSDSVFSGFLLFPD
Excerpt: ELISA plates were coated with a fixed concentration of the purified humanised and control antibodies (1 mcg/ml).

GST-human NOGO-A56 [11] = molecular target: T4, GST-human NOGO-A56; experiment: SPR (Biacore) off-rate on NOGO chip, panel of H6FL CDR H3 variants with L13FL
GST-human NOGO-A56 [12] = molecular target: T4, GST-human NOGO-A56; experiment: SPR (Biacore) off-rate ranking on GST-human NOGO-A56 chip, one experiment
Description: GST-human NOGO-A56 was immobilised to a CM5 chip by primary amine coupling using the Biacore Wizard program designed for targeted immobilisation levels. The CM5 sensor surface was activated by passing a solution of 50 mM N-hydroxy-succinimide (NHS) and 200 mM N-ethyl-N′-dimethylaminopropyl carbonide (EDC). Then GST-human NOGO-A56 in sodium acetate buffer, pH5.0 or pH 4.5, was passed over the chip and immobilised. After immobilisation was complete any still activated esters were blocked by an injection of 1M ethanolamine hydrochloride, pH8.5.
The GST-human NOGO-A56 chip was prepared as for kinetic analysis. Cell supernatants where taken directly from transient transfections of CHO-K1 cells. These were passed directly over the sensor surface and the interaction measured. A mock transfected cell supernatant was used for double referencing to remove any artefacts due to the tissue culture media. All runs were referenced against a blanked sensor surface (one that had been activated and blocked as described earlier but had no addition of ligand). Analysis of binding was carried out using the BIAevaluation kinetic analysis software version 4.1.

GST-human NOGO-A56 [13] = molecular target: T4, GST-human NOGO-A56; experiment: direct ELISA, human NOGO-A (GST-human NOGO-A56) coated at 1 ug/ml, Abs490
[14] = molecular target: T7, Cynomolgus monkey NOGO (A56) plus GST …; experiment: SPR (Biacore), both formats
Excerpt: (§3) Approximately 140-180RUs of the various Nogo-A orthologues were captured to the CM5 chip by primary amine coupling. […] The values show the mean and standard deviation (in brackets) of 1-2 independent runs carried out in duplicate with each data set independently analysed prior to calculation of the mean and standard deviation.
(§4) Protein A was immobilised on the surface at about 4000RUs and anti-Nogo-A antibodies were captured at approximately 300-400RUs. […] All the runs were done in duplicates.

[15] = molecular target: T8, Rat NOGO (A56) plus GST tag; experiment: SPR (Biacore), both formats
Excerpt: as §3, §4

Binder | Kd (GST-human NOGO-A56 [1]) [nM] | IC50 (read off the curve) (GST-human NOGO-A56 [2]) [µg/mL] | fold lower affinity than for human Nogo-A [3] [fold] | IC50 (read off the curve) (GST-human NOGO-A56 [4]) [µg/mL] | binding result [5] | binding result [6] | binding result [7] | fold lower affinity than for human Nogo-A [8] [fold] | fold lower affinity than for human Nogo-A [9] [fold] | fold lower affinity than for human Nogo-A [10] [fold] | binding result (Human C1q (Sigma, C0660)) | koff (GST-human NOGO-A56 [11]) [s⁻¹] | koff (GST-human NOGO-A56 [12]) [s⁻¹] | EC50 (read off the curve) (GST-human NOGO-A56 [13]) [µg/mL] | fold of the affinity for human Nogo-A [14] [fold] | fold of the affinity for human Nogo-A [15] [fold]
H28L16 (antibody, human IgG1, kappa, IgG1 (L235A, G237A) / kappa; CAMPATH-1H signal (1-19) left out; also called H28FL L16FL; NOGO H28L16) heavy: not shown light: DIVMTQSPLSNPVTLGQPVSISCRSSKSLLYKDGKTYLNWFLQRPGQSPQLLIYLMSTRASGVPDRFSGGGSGTDFTLKISRVEAEDVGVYYCQQLVEYPLTFGQGTKLEIKRTVAAPSVFIFPPSDEQLKSGTASVVCLLNNFYPREAKVQWKVDNALQSGNSQESVTEQDSKDSTYSLSSTLTLSKADYEKHKVYACEVTHQGLSSPVTKSFNRGEC | 0.64 | ~4 | 17 | ~4 | binds | binds | binds | 12 | 8.5 | ~4 | binds |  |  |  |  | 
HcLc (chimera of 2A10: murine 2A10 VH and VL with human IgG constant regions) (antibody, V domains shown, also called chimeric antibody; chimeric form of the parental antibody) VH: QVQLQQPGTELVKPGASVKLSCKASGYTFTSYWMHWVKQRPGQGLEWIGNINPSNGGTNYNEKFKSKATLTVDKSSSTAYMQLSSLTSEDSAVYYCELGQGYWGQGTLVTVSS VL: DIVITQDELSNPVTSGESVSISCRSSKSLLYKDGKTYLNWFLQRPGQSPQLLIYLMSTRASGVSDRFSGSGSGTDFTLEISRVKAEDVGVYYCQQLVEYPLTFGAGTKLELKR | 1.86 |  |  |  |  |  | binds |  |  |  |  | 0.00558 | 0.00266 | ~0.04 | ≤ 8.5 | ≤ 4
